Here are results for six molecules from patent US8217140B2, “Peptides capable of binding to serum proteins and compounds, constructs and polypeptides comprising the same” (Ablynx N.V., priority 2008, dated 2012).

Numbering of substitutions follows the chain as printed.

The conditions of series [1]: cynomolgus monkey, in vivo; for AUCinf / C0: 2 mg/kg. How it is done: The pharmacokinetic profile of the constructs was analyzed in male cynomolgus monkeys of approximately 3 to 4 years old and was compared to the reference (SEQ ID NO:165). The constructs and the control were each injected in three monkeys at a dose of 2 mg/kg via an intravenous bolus injection. Blood samples were taken at predose, 5 min, 20 min, 1 h, 2 h, 4 h, 8 h (test day 1) after administration and at test days 2, 3, 5, 7, 9, 12, 15, 18, 21, 24, 27, 30, 33. In order to obtain at least 1 mL plasma per animal per sampling time, a sufficient volume of whole blood was withdrawn per sampling time. Plasma was collected after whole blood centrifugation for 30 minutes at 2200 g at room temperature (RT). The plasma samples were stored at −80° C. until analysis.
For bioanalytical determination of constructs and control article in monkey plasma, plasma samples were tested for levels of constructs and the control using ELISA based PK assays. The detection of control and constructs in the ELISA assays is based on the binding of these Nanobodies with vWF and the assay set-ups are as such that total vWF-binding Nanobody is detected.
For the reference (SEQ ID NO:165) and the construct of SEQ ID NO:167, 96-well microtiter plates (Maxisorp, Nunc, Wiesbaden, Germany) were coated overnight at 4° C. with neutravidin (Pierce) in 10:10 buffer at 3 μg/ml. Wells were aspirated and blocked for 1 hour at RT with PBS/1% casein. After this blocking step, wells were washed with PBS/0.05% Tween20. A biotinylated bivalent Nanobody against the constructs was added to the neutravidin coated plate at 2 μg/ml in PBS/0.1% casein and incubated for 1 hour at RT. After the incubation step of this capture tool, wells were washed 3 times with PBS/0.05% Tween20.
Preparations of the standards, QC samples and dilutions of the test samples were performed in a non-coated (polypropylene) plate. For the standard curve and QC-samples, solutions at the required concentrations were prepared in PBS/0.1% casein and spiked into 100% monkey plasma. To prepare standards and QC samples, a 1/100 dilution of the pure monkey plasma dilutions was made in IgM-Reducing Agent (Immunochemistry Technologies, Bloomington, USA) supplemented with 2.5% pooled human plasma (referred to as sample diluent). For the test samples, dilution factors for the test samples were estimated, and ranged between 1/100 to 1/9000 for the reference of SEQ ID NO:165 tests and between 1/100 and 12000 for the construct of SEQ ID NO: 167. Samples were diluted 1/100 in sample diluent in a first step, and if needed, further dilution was done in sample diluent supplemented with 1% cynomolgus plasma.
Standards, QC samples and diluted test samples were transferred onto the coated plate and incubated for 1 hour at RT. Afterwards the plates were washed followed by a complexation step with purified vWF (ZLB Behring). vWF diluted to 2.5 μg/ml for the assay for the reference of SEQ ID NO:165 and to 3 μg/ml for the assay for the construct of SEQ ID NO: 167 in PBS/0.1% casein was incubated on the plates for 30 minutes at RT. Plates were washed and Nanobody/vWF complexes bound to the capture tool detected with Rabbit anti-human vWF Ab (Dako, Denmark), diluted 1/2000 in PBS/0.1% casein and incubated for 30 minutes at RT. After washing, a 1/15000 dilution in PBS/0.1% casein of Horse-Radish-Peroxidase labelled goat anti-rabbit Ab (Dako, Denmark) was added to the plate and incubated for 30 minutes at RT. The enzyme coupled to the Ab catalyzes a chemical reaction with the substrate sTMB (3,3′,5,5′-tetramethylbenzidine, SDT reagents, Brussels, Belgium), resulting in a colorimetric change. After stopping this reaction after 10 minutes using HC1 (1N), the intensity of the colour was measured using a spectrophotometer at 450 nm. […]

In series [2] the test system is VWF. Put plainly: Pharmacodynamic profile: ristocetin cofactor activity assay (% RICO) after i.v. administration. It counts as in vivo, Cynomolgus monkey. To be noted: for Tonset values: estimated, i.v. application; for AUC below T / Time below T: threshold 20% RICO, male Cynomolgus monkey, mean n = 3; for AUC below T / Time below T / Tonset / Toffset: i.v. bolus 2 mg/kg; for Tonset: time % RICO first drops below threshold; for Toffset: time % RICO first returns above threshold. The procedure:
For the constructs used in Example 14, pharmacodynamic characteristics upon compound administration were measured by means of a ristocetin cofactor activity assay (Biopool). The ristocetin cofactor activity is a functional assay for VWF, measuring the capacity of VWF to interact with the platelet receptor glycoprotein Ib using ristocetin as a modulator.
For pharmacodynamic data analysis, descriptive statistics (mean and SD) were calculated per dose group and per sampling time point using Microsoft Excel 2007. Response parameters and associated statistics for the overall time course were calculated by noncompartmental analysis of the response-time data using WinNonlin Pro 5.1 (Pharsight Corporation, USA; 2006). The non-compartmental analysis was based on a model for pharmacodynamic data (Model 220). The threshold value was set at 20% based on extensive historical PK/PD data on the vWF-0001 compound. Preclinical studies have shown that a complete inhibition of the pharmacodynamic marker are correlated with full antithrombotic efficacy. The following main pharmacodynamic parameters were determined: time below the threshold (Time below T), area under the threshold (AUC below T), time at which the % RICO first drops below the threshold (Tonset), and time at which the % RICO first returns back above the threshold (Toffset).

The target in series [3] is human serum albumin (Homo sapiens, UniProt P02768). In words: Surface plasmon resonance (BIAcore 3000) of MycHis tagged 2D3-Expedite fusions, Example 10. The note with it: for binding to HSA compared to 2D3-9GS-56E4-MycHis: FIG. 8A; for ka / dissociation rate constant (koff): Human serum albumin; for ka: chip ~3000 RU. It counts as binding. How it is done:
(§1) The binding of the resulting 2D3-9GS-56E4-MycHis, 2D3-9GS-59C2-MycHis, 2D3-9GS-59F2-MycHis and 2D3-9GS-59H12-MycHis fusion proteins to human and cynomolgus serum albumin (HSA and CSA respectively) was determined using surface plasmon resonance analysis. For this purpose, binding to HSA and CSA was assessed in BIAcore™ 3000, by injecting concentration series of the fusion proteins ranging from 2 μM to 200 nM on a CM5 chip coated with ˜3000 RU HSA or CSA. Coating of the chip (CM5) was performed by amine coupling using NHS/EDC for activation and ethanolamine for deactivation (Biacore amine coupling kit). HBS-EP was used as flow buffer at a rate of 45 μl min-1. 90 μl of sample was injected for 120 s.
Background: In SPR one partner is held on a chip, and binding of the other changes the refractive index at the surface.

Series [4] deals with Cynomolgus monkey serum albumin (Macaca fascicularis, UniProt A2V9Z4). Described as above. It counts as binding. To be noted: for ka / koff (dissociation rate constant): Cynomolgus monkey serum albumin; for ka: chip ~3000 RU; for binding to CSA compared to 2D3-9GS-56E4-MycHis: FIG. 8B. The procedure:
as §1

Chain of Cynomolgus monkey serum albumin (A2V9Z4 25-608): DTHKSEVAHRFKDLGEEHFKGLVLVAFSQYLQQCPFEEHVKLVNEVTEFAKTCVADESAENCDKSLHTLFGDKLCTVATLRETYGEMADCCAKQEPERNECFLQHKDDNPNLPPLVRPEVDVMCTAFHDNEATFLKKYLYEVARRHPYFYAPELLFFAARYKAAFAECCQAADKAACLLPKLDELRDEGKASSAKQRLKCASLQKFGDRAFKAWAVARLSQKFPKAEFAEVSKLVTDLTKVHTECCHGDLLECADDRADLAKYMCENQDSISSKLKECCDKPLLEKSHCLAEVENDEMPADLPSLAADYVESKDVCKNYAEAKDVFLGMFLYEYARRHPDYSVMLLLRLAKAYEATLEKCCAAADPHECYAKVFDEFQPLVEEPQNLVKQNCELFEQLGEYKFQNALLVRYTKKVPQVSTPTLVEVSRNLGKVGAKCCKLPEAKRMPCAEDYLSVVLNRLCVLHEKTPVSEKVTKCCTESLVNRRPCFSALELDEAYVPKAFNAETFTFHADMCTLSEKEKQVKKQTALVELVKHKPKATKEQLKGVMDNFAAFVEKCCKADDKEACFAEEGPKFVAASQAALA

B1: 12A2_sv1-AAA-12A2_sv1 (protein)
chain: DVQLVESGGGLVQPGGSLRLSCAASGRTFSYNPMGWFRQAPGKGRELVAAISRTGGSTYYPESVEGRFTISRDNAKRTVYLQMNSLRAEDTAVYYCAAAGVRAEQGRVRTLPSEYTFWGQGTQVTVSSAAAEVQLVESGGGLVQPGGSLRLSCAASGRTFSYNPMGWFRQAPGKGRELVAAISRTGGSTYYPESVEGRFTISRDNAKRTVYLQMNSLRAEDTAVYYCAAAGVRAEQGRVRTLPSEYTFWGQGTQVTVSS
As to B1, the “plasma level after the initial drop” value in series [1] is ~2000 ng/mL. For the same molecule, in series [1] (iv), the “plasma level directly after i.v. injection” value is listed as “about 45 ug/ml”, the AUCinf was found to be 62.6 µg·h/mL and the C0 was 45300 ng/mL. For the same molecule, in series [2], the “Tonset values” is ~5 min, the “AUC below T” value was found to be 6.60 % RICO * h, the “Time below T” value came out at 1.21 h and the Tonset stood at 0.077 h. The Toffset in series [2] is recorded as 1.28 h.

B2: 2D3-9GS-59C2-MycHis: SEQ ID NO: 160 (protein)
chain: EVQLVESGGSLVQPGGSLRLSCAASGFTFDDYAMSWVRQVPGKGLEWVSSINWSGTHTDYADSVKGRFTISRNNANNTLYLQMNSLKSEDTAVYYCAKNWRDAGTTWFEKSGSAGQGTQVTVSSGGGGSGGGSAAARDWDFDVFGGGTPVGGAAAEQKLISEEDLNGAAHHHHHH
modifications: Myc-His tag
As to B2, in series [3], the “binding to HSA compared to 2D3-9GS-56E4-MycHis” value is “improved binding”, the ka was 3.73E+03 1/ms and the “dissociation rate constant (koff)” value turned out to be 0.00179 s⁻¹. In series [4], the ka was 2.75E+03 1/ms, the “koff (dissociation rate constant)” value came out at 0.00213 s⁻¹ and the “binding to CSA compared to 2D3-9GS-56E4-MycHis” value was “improved binding”.

B3: 2D3-9GS-56E4-MycHis: SEQ ID NO: 158 (protein)
chain: B2 chain with D138Y, F141Y
modifications: Myc-His tag
As to B3, in series [3], the ka is 5.02E+03 1/ms and the “dissociation rate constant (koff)” value is 0.00497 s⁻¹. Also, in series [4], the ka is 4.01E+03 1/ms and the “koff (dissociation rate constant)” value was 0.00845 s⁻¹.

B4: 2D3-9GS-59H12-MycHis: SEQ ID NO: 161 (protein)
chain: B2 chain with D138S
modifications: Myc-His tag
As for B4, in series [3], the “binding to HSA compared to 2D3-9GS-56E4-MycHis” value is recorded as “improved binding”, the ka is given as 4.59E+03 1/ms and the “dissociation rate constant (koff)” value was 0.00304 s⁻¹. In addition, in series [4], the ka is reported as 3.45E+03 1/ms, the “koff (dissociation rate constant)” value turned out to be 0.00441 s⁻¹ and the “binding to CSA compared to 2D3-9GS-56E4-MycHis” value is “improved binding”.

B5: 2D3-9GS-59F2-MycHis: SEQ ID NO: 159 (protein)
chain: B2 chain with D138Y
modifications: Myc-His tag
B5: in series [3], the “binding to HSA compared to 2D3-9GS-56E4-MycHis” value is given as “improved binding”, the ka is reported as 6.14E+03 1/ms and the “dissociation rate constant (koff)” value was 0.00351 s⁻¹. Besides, in series [4], the ka is 4.85E+03 1/ms, the “koff (dissociation rate constant)” value was determined as 0.00504 s⁻¹ and the “binding to CSA compared to 2D3-9GS-56E4-MycHis” value is “improved binding”.

B6: 12A2_sv1-9GS-59C2-9GS-12A2_sv1 (protein)
chain: DVQLVESGGGLVQPGGSLRLSCAASGRTFSYNPMGWFRQAPGKGRELVAAISRTGGSTYYPESVEGRFTISRDNAKRTVYLQMNSLRAEDTAVYYCAAAGVRAEQGRVRTLPSEYTFWGQGTQVTVSSGGGGSGGGSRDWDFDVFGGGTPVGGGGGGSGGGSEVQLVESGGGLVQPGGSLRLSCAASGRTFSYNPMGWFRQAPGKGRELVAAISRTGGSTYYPESVEGRFTISRDNAKRTVYLQMNSLRAEDTAVYYCAAAGVRAEQGRVRTLPSEYTFWGQGTQVTVSS
In the case of B6, in series [1], the “Vdss lower relative to vWF0001” value is 12 fold, the “dominant half-life (t½ dominant) increase relative to vWF0001” value came out at 70 fold and the “mean CL decrease compared to the control” value came out at 22 fold. Besides, in series [1] (iv), the AUCinf was 1320 µg·h/mL and the C0 stood at 48900 ng/mL. In addition, in series [2], the “Tonset values” was ~5 min, the “AUC below T” value came out at 379 % RICO * h, the “Time below T” value is listed as 39.9 h and the Tonset was 0.079 h. In addition, the Toffset in series [2] is listed as 40.0 h. In addition, in series [2] (i.v. bolus), the “mean AUC under the threshold increase relative to vWF0001” value was found to be 57 fold and the “time below the threshold increase relative to vWF0001” value is 33 fold.
